Data as given in patent publication US12503479B2, “Phospholipid-flavagline conjugates and methods of using the same for targeted cancer therapy” (Cellectar Biosciences, Inc., priority 2018, dated 2025).
Like-named read-outs stand apart in the source and are kept apart here.

Experiments:
[1] = test system: normal human dermal fibroblasts (NHDF); assay: Cytotoxicity of parent compound versus PDC, normal cells (Example 8); format: cell-based; conditions: increasing concentrations
Protocol: (§1) A549 (human lung adenocarcinoma) cells and normal human dermal fibroblasts (NHDF) were plated in 96 well dishes overnight. […] The difference between the cytotoxicity of the PDC molecule for tumor cells and that of the normal cells may have indicated a potential to improve the parent molecules therapeutic index.

[2] = Plasma stability, human
Protocol: (§2) A small amount of molecule was exposed to plasma, and the plasma was then analyzed via HPLC or MS to determine if the molecule was degraded.

[3] = format: in vivo, mice
Protocol: Listed in Table 5 are the doses administered to the mice, and how many mice were alive after treatment (“3/3” indicates 3 out of 3 mice were alive). […] MTD for CLR 1865 was between 5 and 10 mg/kg.

[4] = test system: A375 and A549 cells; assay: Levels of FLV3 in cell lysate and growth media (LC/MS); format: cell-based, human
Protocol: FIG. 11 is a graph of concentration versus time for FLV3 detected in the cytosol (normalized to the cytosolic volume) in A375 (human melanoma) and A549 (human lung adenocarcinoma) cell lines.
The levels of FLV3 in cell lysate and growth media were measured using LC/MS. […] Levels of intracellular FLV3 appeared to plateau at 24 hours, while extracellular levels of FLV3 continued to increase.

[5] = Plasma stability, mouse
Protocol: as §2

[6] = test system: A549 (human lung adenocarcinoma) cells; assay: Cytotoxicity of parent compound versus PDC, tumor cells (Example 8); format: cell-based; conditions: increasing concentrations; for Cytotoxic potency to A549 cells versus NHDF cells (selectivity): FIG. 3
Protocol: as §1

[7] = test system: HCT 116 cells (human colon cancer); format: in vivo; set-up: dose or concentration left out as unconfirmed; conditions: HCT 116 tumor model; three doses; FIG. 9
[8] = test system: A549 (human lung adenocarcinoma); assay: cells; format: cell-based; conditions: various concentrations; A549 and NHDF; FIG. 8
[9] = test system: NHDF (normal human dermal fibroblasts); assay: cells; format: cell-based

COC(=O)[C@H]1[C@@H](O)[C@@]2(O)c3c(OC)cc(OCCCCNC(=O)OCC(C)(C)SSCCCCCCCCCCCCCCCCCCOP(=O)([O-])OCC[N+](C)(C)C)cc3O[C@@]2(c2ccc(OC)cc2)[C@@H]1c1ccccc1 [CLR 1852]
Cytotoxic effect on NHDF cells [1]: almost no effect on NHDF cells until the highest concentrations | Human half-life [2]: >6.67 h | Human plasma stability [2]: excellent human plasma stability | Mice alive after treatment ([3]; Dose 0.1 mg/kg): 3/3 | Mice alive after treatment ([3]; Dose 0.25 mg/kg): 3/3 | Mice alive after treatment ([3]; Dose 0.5 mg/kg): 3/3 | Mice alive after treatment ([3]; Dose 1.0 mg/kg): 3/3 | Mice alive after treatment ([3]; Dose 5.0 mg/kg): 3/3 | Mice alive after treatment ([3]; Dose 10.0 mg/kg): 3/3 | Maximum tolerated dose (MTD) ([3]; mice): did not achieve a maximum tolerated dose | Tolerability compared to FLV3 alone ([3]; mice): excellent improvement in tolerability compared to FLV3 alone | In vivo therapeutic index ([3]; mouse, in vivo): at least 25 | Time at which levels of intracellular FLV3 plateau [4]: 24 h | Levels of FLV3 in the growth media ([4]; after 24 hours): Moderate levels | Levels of FLV3 in the cell lysate ([4]; after 24 hours, FIG. 11): high levels | Mouse half-life ([5]; mouse plasma): >6.67 h | Time stable in plasma ([5]; plasma, species not stated): at least 7 hours | Cytotoxic potency in A549 cells relative to the parent molecule [6]: near similar potency to the parent molecule in A549 cells | Cytotoxic potency to A549 cells versus NHDF cells (selectivity) [6]: selectivity for the A549 cells | Time from which tumor volume was reduced compared to vehicle [7]: around 27 days | Cytotoxic potency compared to FLV3 alone [8]: modest loss in potency compared to FLV3 alone | Therapeutic Index (TI) [9]: 360 | Therapeutic Index (TI) (value in parentheses) [9]: 915

COc1ccc([C@@]23Oc4cc(OCCCCNC(=O)OCC(C)(C)SSCCCCCCCCCCCCCCCCCCOP(=O)([O-])OCC[N+](C)(C)C)cc(OC)c4[C@]2(O)[C@H](O)[C@H](C(=O)O)[C@H]3c2ccccc2)cc1 [CLR 1865]
Cytotoxic effect on NHDF cells [1]: almost no effect on NHDF cells until the highest concentrations | Human half-life [2]: >6.67 h | Human plasma stability [2]: excellent human plasma stability | Mice alive after treatment ([3]; Dose 0.1 mg/kg): 3/3 | Mice alive after treatment ([3]; Dose 0.25 mg/kg): 3/3 | Mice alive after treatment ([3]; Dose 0.5 mg/kg): 3/3 | Mice alive after treatment ([3]; Dose 1.0 mg/kg): 3/3 | Mice alive after treatment ([3]; Dose 5.0 mg/kg): 3/3 | Mice alive after treatment ([3]; Dose 10.0 mg/kg): 2/3 | In vivo therapeutic index ([3]; mice): ≥ 12.5 | Tolerability compared to FLV3 alone ([3]; mice): excellent improvement in tolerability compared to FLV3 alone | Mouse half-life ([5]; mouse plasma): 3.32 h | Time stable in mouse plasma ([5]; mouse plasma): 3.3 h | Cytotoxic potency in A549 cells relative to the parent molecule [6]: near similar potency to the parent molecule in A549 cells | Cytotoxic potency to A549 cells versus NHDF cells (selectivity) [6]: selectivity for the A549 cells | Therapeutic Index (TI) (value in parentheses) ([9]; from the NHDF value in parentheses): 37.3 | Therapeutic Index (TI) ([9]; not defined, equals NHDF IC50 over lowest tumor line IC50): 11.64

COc1ccc([C@]23Oc4cc(OCCCCN)cc(OC)c4[C@@]2(O)[C@@H](O)[C@@H](C(=O)O)[C@@H]3c2ccccc2)cc1 [FLV1, reference compound]
Cytotoxic potency to A549 cells versus NHDF cells (selectivity) [6]: near equal potency to the A549 cells as it did to the NHDF cells
